The numbers were not newly measured in PMC5028754, which cites them from elsewhere.

The target of this data set is ubiquitin (UniProt P0CG48). Briefly: NMR. The note with it: cited from earlier work.

Chain of Ddi1 UBA (P40087 386-428): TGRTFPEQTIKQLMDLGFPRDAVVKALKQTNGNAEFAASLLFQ
Chain of Ddi1 UBL (P40087 1-80): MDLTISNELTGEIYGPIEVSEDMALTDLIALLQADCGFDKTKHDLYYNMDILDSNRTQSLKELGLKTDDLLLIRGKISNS

In the case of Ddi1 UBA (from UniProt P40087), the Kd (commonly the equilibrium constant for the complex coming apart) was 150 µM.
Consider Ddi1 UBL (from UniProt P40087), for which the Kd is 45 µM.
